How the values were obtained:
[1] = biological target: T1, CD19 (on Nalm6 leukemia cells) (human, UniProt P15391 20-556); test: flow cytometry titration (0.05-100 nM) on Nalm6 cells, anti-His then APC anti-mouse IgG detection, fitted in GraphPad Prism8
T1 construct: whole, on cells; also called CD19抗原; Nalm6上的CD19抗原
T1 sequence (looked up): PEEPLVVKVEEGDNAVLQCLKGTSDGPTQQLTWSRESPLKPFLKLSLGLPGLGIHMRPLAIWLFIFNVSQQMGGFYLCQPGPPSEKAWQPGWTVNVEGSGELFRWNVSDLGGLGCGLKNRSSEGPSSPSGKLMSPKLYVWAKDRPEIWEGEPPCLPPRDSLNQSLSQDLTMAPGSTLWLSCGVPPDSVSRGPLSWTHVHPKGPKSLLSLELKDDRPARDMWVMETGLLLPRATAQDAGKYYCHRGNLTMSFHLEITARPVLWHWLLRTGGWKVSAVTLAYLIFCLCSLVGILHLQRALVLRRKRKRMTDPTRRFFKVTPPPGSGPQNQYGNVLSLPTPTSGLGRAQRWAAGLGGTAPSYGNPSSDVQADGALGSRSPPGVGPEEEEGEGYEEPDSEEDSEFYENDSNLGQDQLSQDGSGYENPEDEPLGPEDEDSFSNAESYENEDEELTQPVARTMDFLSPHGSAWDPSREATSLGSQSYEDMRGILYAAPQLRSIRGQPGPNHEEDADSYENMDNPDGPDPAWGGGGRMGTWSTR

[2] = biological target: CD3 (on human T cells) (human); test: flow cytometry titration on human T cells, same method as for Nalm6, fitted in GraphPad Prism8
CD3 (on human T cells) (human), sequence (P07766 23-207, chain 1 of 4): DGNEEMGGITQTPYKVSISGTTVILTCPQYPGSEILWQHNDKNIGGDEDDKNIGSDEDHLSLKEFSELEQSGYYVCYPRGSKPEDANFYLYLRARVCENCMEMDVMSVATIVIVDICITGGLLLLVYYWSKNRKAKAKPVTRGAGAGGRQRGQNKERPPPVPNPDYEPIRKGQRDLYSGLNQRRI
CD3 (on human T cells) (human), sequence (P09693 23-182, chain 2 of 4, further chain): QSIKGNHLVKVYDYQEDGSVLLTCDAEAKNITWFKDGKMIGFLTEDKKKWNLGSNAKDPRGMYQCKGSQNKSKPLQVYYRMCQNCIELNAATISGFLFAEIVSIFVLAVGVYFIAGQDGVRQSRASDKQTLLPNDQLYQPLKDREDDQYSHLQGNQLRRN
CD3 (on human T cells) (human), sequence (P04234 22-171, chain 3 of 4, further chain): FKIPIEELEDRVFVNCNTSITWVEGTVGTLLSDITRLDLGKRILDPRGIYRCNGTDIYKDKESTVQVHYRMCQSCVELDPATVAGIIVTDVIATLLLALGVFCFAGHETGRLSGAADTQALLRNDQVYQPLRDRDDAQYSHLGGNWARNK
CD3 (on human T cells) (human), sequence (P20963 22-164, chain 4 of 4, further chain): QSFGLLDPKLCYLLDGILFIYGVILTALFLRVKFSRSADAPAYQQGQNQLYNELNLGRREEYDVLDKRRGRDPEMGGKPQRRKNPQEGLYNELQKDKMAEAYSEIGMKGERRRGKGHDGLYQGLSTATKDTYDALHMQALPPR

- Kd [1]: 11.7 nM
- Kd [2]: 19.2 nM
B1: CD19scFv-CD80-CD3scFv三特异性融合蛋白 (other)
chain: HHHHHHLEDIVLTQSPKFMSTSVGDRVSVTCKASQNVGTNVAWYQQKPGQSPKPLIYSATYRNSGVPDRFTGSGSGTDFTLTITNVQSKDLADYFCQQYNRYPYTSGGGTKLEIKRGGGGSGGGGSGGGGSQVQLQQSGAELVRPGSSVKISCKASGYAFSSYWMNWVKQRPGQGLEWIGQIYPGDGDTNYNGKFKGQATLTADKSSSTAYMQLSGLTSEDSAVYFCARKTISSVVDFYFDYWGQGTTLTVSSEFGGGGSGGGGSGGGGSGGGGSVIHVTKEVKEVATLSCGHNVSVEELAQTRIYWQKEKKMVLTMMSGDMNIWPEYKNRTIFDITNNLSIVILALRPSDEGTYECVVLKYEKDAFKREHLAEVTLSVKADFPTPSISDFEIPTSNIRRIICSTSGGFPEPHLSWLENGEELNAINTTVSQDPETELYAVSSKLDFNMTTNHSFMCLIKYGHLRVNQTFNWNTTKQEHFPDNGGGGSGGGGSGGGGSGGGGSVDADIELTQSPAIMSASPGEKVTMTCSASSSVSYMNWYQQKSGTSPKRWIYDTSKLASGVPARFSGSGSGTSYSLTISGMEAEDAATYYCQQWSSNPFTFGSGTKLELKRGGGGSGGGGSGGGGSQVQLQQSGAELARPGASVKMSCKASGYTFTRYTMHWVKQRPGQGLEWIGYINPSRGYTNYNQKFKDKATLTTDKSSSTAYMELTRLTSEDSAVYYCARYYDDHYSLDYWGQGTTVTVSSWSHPQFEK
notes: Expressed in ExpiCHO-S cells; also called 19TriTE; CD19scFv-CD80-CD3scFv重组融合蛋白

Reference: patent publication CN114539423A (dated 2022)
